Measurements published in PMC10359924, “Identification and characterisation of anti-IL-13 inhibitory single domain antibodies provides new insights into receptor selectivity and attractive opportunities for drug discovery” (Frontiers in Immunology, 2023).

Experiments:
[1] = target: human Interleukin-13 (IL-13) (1-113) (Homo sapiens); assay: cell-based or functional assay
[2] = target: T1, human Interleukin-13 (IL-13) (1-113) (Homo sapiens); assay: BLI; Octet QKe; N-terminally His-tagged VHH loaded on Ni-NTA biosensors (100 nM), titrated with untagged IL-13; 300 s association, 300 s dissociation; 25°C; HBS-EP+ (10 mM HEPES pH 7.4, 150 mM NaCl, 3 mM EDTA, 0.005% Tween-20); steady-state curves, one-site binding model; details: both partners purified
T1 construct: source: 15N or 15N/13C labelled for NMR
T1 sequence (chain, as listed by the source): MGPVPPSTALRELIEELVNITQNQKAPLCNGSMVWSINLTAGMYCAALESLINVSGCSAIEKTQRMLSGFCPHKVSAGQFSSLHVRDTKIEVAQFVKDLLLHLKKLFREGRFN

Binder	IC50 of inhibition of IL-13 signalling (STAT6/SEAP reporter, HEK-Blue IL-4/IL-13 cells); blocks IL-13 signalling through IL-13Rα1 and IL-4Rα [1] [µM]	Kd [2] [µM]
VHH235 (VHH, From a naive llama VHH phage library (UCB Biopharma); cloned into pET21a(+); not shown: His6, N-terminal, kept) VHH: EVQLVESGGGLVQPGGSLRLSCAASGFNFGNSAMSWFRQAPGKGLEWVSSINSGGGGSVYRASVKGRFTISRDDAKNTLFLQMNSLKPEDTAVYYCNADTYVPKDGGGWSPEYDIWGQGTLVTVSS	74.3	3.6
VHH245 (VHH, From a naive llama VHH phage library (UCB Biopharma); cloned into pET21a(+); not shown: His6, N-terminal, kept) VHH: EVQLVESGGDLVQPGGSLRLSCSASGFTFDDYAMNWIRQAPGKGLEWVSSISWNGDSTYYAESMKGRFTISRDNAKNTLYLQMNSLQSEDTAVYYCNAQEYVGAHVYDYWGQGTQVTVSS	3.7	0.2
VHH201 (VHH, From a naive llama VHH phage library (UCB Biopharma); cloned into pET21a(+); not shown: His6, N-terminal, kept) VHH: EVQLVESGGGLVQAGESLTLSCAASGNSFDDYAVGWFRQAPGKEREGVGCINCETGVTTYYADSVKGRFTIHRDNAKNTVYLQMNSLKLEDTATYYCAADRWGTRLVAATYDYWGQGTQVTVSS	37.7	0.9
VHH228 (VHH, From a naive llama VHH phage library (UCB Biopharma); cloned into pET21a(+); not shown: His6, N-terminal, kept) VHH: QVQLVESGGGLVQPGGSLTLSCAVSGFRFDDYAIGWFRQAPGKEREGVGCINCETGVTTYYADSVKGRFTIHRDNAKNTVYLQMNSLKLEDTATYYCAADRWGTRLVAATYDYWGQGTQVTVSS	56	0.9
VHH227 (VHH, From a naive llama VHH phage library (UCB Biopharma); cloned into pET21a(+); not shown: His6, N-terminal, kept) VHH: EVQLVESGGNLVQPGGSLRLSCAASGFTFSKYAMNWVRQAPGKGLEWVSAINSFAGSTSYADSVKGRFTISRDNAKNTLYLQMNSLKPEDTAVYYCKYRGYYGQGTQVTVSS	63.5	5.5
VHH229 (VHH, From a naive llama VHH phage library (UCB Biopharma); cloned into pET21a(+); not shown: His6, N-terminal, kept) VHH: EVQLVESGGGLVQPGGSLRLSCAASGFTFRRYDMSWVRQVPGKGLEWVSDINSGGDSTNYADSVKGRFTISRDNNKNVLYLQMNSLKPEDTAVYYCNADTYVPKDGGGWSPEYDIWGQGTQVTVSS	11.4	0.2
VHH210 (VHH, From a naive llama VHH phage library (UCB Biopharma); cloned into pET21a(+); not shown: His6, N-terminal, kept) VHH: EVQLVESGGGLVQPGGSLRLSCAASGFTFSSSWMYWVRQVPGKGLEWLSDVDPGGGNTYYADSVKGRFTISRDNAKKVLYLQMNSLKPEDTAVYYCNADTYVPKDGGGWSPEYDIWGQGTQVTVSS	0.2	0.04
VHH209 (VHH, From a naive llama VHH phage library (UCB Biopharma); cloned into pET21a(+); not shown: His6, N-terminal, kept) VHH: EVQLVESGGGLVQPGGSLRLSCAASGFTFSNYAMSWVRQAPGKGLEWVSSIESGSSRTIYRDSVKGRFTISRDNAKNTVYLQMNSLKPEDTAVYYCNADTYVPKDGSGWSPEYDVYGQGTQVTVSS	67.8	2.2
VHH234 (VHH, From a naive llama VHH phage library (UCB Biopharma); cloned into pET21a(+); not shown: His6, N-terminal, kept) VHH: EVQLVESGGGLVQPGGSLRLSCAASGFTFSSYAMNWVRQAPGKGLEWVSAINSGGGTTDYADSVKGRFTISRDNAKNTLYLQMNSLKPEDTAVYYCARGKLGNGLEWGQGTQVTVSS	49.6	4.1
VHH281 (VHH, From a naive llama VHH phage library (UCB Biopharma); cloned into pET21a(+); not shown: His6, N-terminal, kept) VHH: EVQLVESGGGLVQPGGSLRLSCAASGFTFGSYDMSWVRQAPGKGPEWVSYIDSGGRTTYYADSVKGRFTISRDNARNTVYLQMNSLKPEDTAVYYCAREAHGSGWSAANYYGMDYWGEGTQVTVSS	34.3	0.4
VHH251 (VHH, From a naive llama VHH phage library (UCB Biopharma); cloned into pET21a(+); not shown: His6, N-terminal, kept) VHH: EVQLVESGGGLVQPGGSLRLSCQASGFAFSSSTMYWVRQTPGKGLEWVSSITRGGTNTYYRDSVKGRFTISRDNNKNALYLQMNSLKPEDTAVYYCNADTYVPKDGGGWSPEYDIWGQGTLVTVSS	6.9	2.2
VHH264 (VHH, From a naive llama VHH phage library (UCB Biopharma); cloned into pET21a(+); not shown: His6, N-terminal, kept) VHH: EVQLVESGGGLVQPGGSLRLSCQASGFAFSSSTMYWVRQTPGKGLEWVSSITRGGTNTYYRDSVKGRFTISRDDAKNTLYLQMNSLKPEDTAVYYCNADTYVPKDGGGWSPDYDIWGQGTQVTVSS	14.5	3.9
VHH238 (VHH, From a naive llama VHH phage library (UCB Biopharma); cloned into pET21a(+); not shown: His6, N-terminal, kept) VHH: EVQLVESGGGLVQPGGSLRLSCAASGFTISNHDMHWVRQAPGKGLEWVSSINPGGTYTEYRDSVKGRFTISRDNAKNTLYLQMNDLKPQDTAVYYCNAWGKGVEYDYWGQGTQVTVSS	1.7	0.2
VHH204 (VHH, From a naive llama VHH phage library (UCB Biopharma); cloned into pET21a(+); also called VH204; not shown: His6, N-terminal, kept) VHH: EVQLVESGGGLVQAGGSLRLSCVASGRTISSYAMTWVRHAPGKGLEWVSTISTDASNTYYADSVKGRFTVSRDNAKNTVYLQMNSLKPEDTALYYCARVRLDGWEYDYWGQGTQVTVSS	26.2	2.6
VHH214 (VHH, From a naive llama VHH phage library (UCB Biopharma); cloned into pET21a(+); not shown: His6, N-terminal, kept) VHH: EVQLVESGGGLVQAGGSLRLSCAASGLLFDINDMGWYRQAPGKQREMVATIRSGGSTVYAEAVKGRFTISRDDAKHSVHLQMNNLKPEDSAVYYCHRTYNSYADWGQGTQVTVSS	154	4.8
